Test results from US20220144922A1 (Adimab, published 2022).
Where a chain is given by its changes, count along the chain named.

How the values were obtained:
[1] = target: T1, prefusion-stabilized RSV F ectodomain (DS-Cav1), subtype B (respiratory syncytial virus subtype B); assay: BLI, IgG on sensor
T1 construct: extracellular domain; also called Prefusion subtype B
Experimental: IgG binding to DS-Cav1 and FA FP was determined by BLI measurements using a FortéBio Octet HTX instrument (Pall Life Sciences). […] Data was analyzed using the ForteBio Data Analysis Software 7. The data was fit to a 1:1 binding model to calculate an association and dissociation rate, and KD was calculated using the ratio kd/kₐ.

[2] = target: RSV F protein of subtype B strain 18537, on virus (respiratory syncytial virus subtype B …, UniProt P13843 26-574); assay: cell-based or functional assay
[3] = target: RSV F protein of subtype A strain A2, on virus (respiratory syncytial virus subtype A …, UniProt P03420 26-574); assay: cell-based or functional assay

B1: ADI-15566 (antibody, V domains shown)
VH: QVQLVQSGAEVKKPGASVKVSCKASGFTFTNYGISWVRQAPGRGLEWMGWISAYNGNTEYAQKLQDRLTMTTDTSTNTAYMELRSLRSDDTALYYCARESGVAAAATLLYWGQGTLVTVSS
VL: ETTLTQSPLSLPVTLGQPASISCRSSQSLVYSDGNTYLSWFQQRPGQSPRRLIYKVSNRDSGVPDRFSGSGSGADFTLKISRVEAEDVGVYYCMQGIYWPRTFGQGTKVDIK
notes: IgG
Kd [1]: 0.264 nM
Neut IC50 (ug/ml) subtype B [2]: 0.043 µg/mL
Neut IC50 (ug/ml) subtype A [3]: 0.01 µg/mL

B2: ADI-15568 (antibody, V domains shown)
VH: QVQLVESGAEVQKPGASVKISCKASGYKFISYSIHWVRQAPGQGLEWMGVINPGGGLTNYAQKFQDRLTMTRDTSTATVTMELRSLRSDDRAVYFCGREDSYCSGDSCFNSGSGRWVDSWGQGTLVTVSS
VL: DIQVTQSPSSLSASVGDRVTITCRASQSVITYLNWYQQKPGKAPQLLVYAASILQSGVPSSFSGSGSGTDFTLTISSLQPEDFATYYCQQTYSTPHTFGQGTKVDIK
notes: IgG
Kd [1]: 0.699 nM
Neut IC50 (ug/ml) subtype B [2]: 0.033 µg/mL
Neut IC50 (ug/ml) subtype A [3]: 0.016 µg/mL

B3: ADI-15655 (antibody, V domains shown)
VH: EVQLVESGGGVVQPGRSLRLSCAASGFTFSSYAMHWVRQAPGKGLEWVAVISYDEGNEYYADSVKGRFTISRANSKNTIYLQMNSLRAEDTAVYYCARDYIHGDYGLDVWGLGTTVTVSS
VL: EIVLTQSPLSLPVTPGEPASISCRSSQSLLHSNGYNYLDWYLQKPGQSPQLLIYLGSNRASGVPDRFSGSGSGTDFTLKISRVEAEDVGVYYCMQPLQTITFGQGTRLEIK
notes: IgG
Kd [1]: 8.58 nM
Neut IC50 (ug/ml) subtype B [2]: > 10 µg/mL
Neut IC50 (ug/ml) subtype A [3]: > 10 µg/mL

B4: ADI-15642 (antibody, V domains shown)
VH: EVQLVESGGGLIQPGGSLRLSCAASGFTVSSKYMSWVRQAPGKGLEWVSIIYSGGSTYHADSVKGRFTISRDNSKNTLYLQMNSLRAEDTAVYYCARDDYDFWSGNGPPEMAVWGQGTTVTVSS
VL: DIRMTQSPSSLSASVGDRVTITCRASQGISNYLAWYQQKPGKVPKLLIYAASTLQSGVPSRFSGSGSETDFTLTISSLQPEDVATYYCQKYNSVPLTFGQGTKVEIK
notes: IgG; also called Antibody Number 206
Kd [1]: 2.81 nM
Neut IC50 (ug/ml) subtype B [2]: 0.005 µg/mL
Neut IC50 (ug/ml) subtype A [3]: 0.499 µg/mL

B5: ADI-15650 (antibody, V domains shown)
VH: B4 VH with H59Y
VL: B4 VL with I2M, M4L, K39R, K45Q, A50T, N92D
notes: IgG; also called Antibody Number 214
Kd [1]: 3.52 nM
Neut IC50 (ug/ml) subtype B [2]: 0.016 µg/mL
Neut IC50 (ug/ml) subtype A [3]: 8.3 µg/mL

B6: ADI-15656 (antibody, V domains shown)
VH: QVQLVQSGAEVKKPGASVKVSCKASGYTFTDYYMHWVRQAPGQGLEWVGWINPNSGSTNYAQKFQGRVTVTRDTSISTAYMDLSRLRSDDTAVYYCASRSWDHDAFDIWGQGTMVTVSS
VL: QSVLTQPPSVSGAPGQRVTISCTGSSSNIGAGYDVHWYQQLPGRAPKLLIFGNSNRPSGVPDRFSGSKSGTSASLAITGLQPEDEADYYCHCYDSRLSVVFGGGTKLTVL
notes: IgG; also called Antibody Number 220
Kd [1]: 6.13 nM
Neut IC50 (ug/ml) subtype B [2]: 0.021 µg/mL
Neut IC50 (ug/ml) subtype A [3]: > 10 µg/mL

B7: ADI-15564 (antibody, V domains shown)
VH: QVQLVQSGAEVKKPGSSVKVSCKASGDTFNSYSISWVRQAPGQGLEWMGGILPMFGSSDYAQKFQGRLTITADESTRTAYMELNSLTSEDTAIYYCARDNYYVWTGRYPEFDFWGQGTLVTVSS
VL: EIVLTQSPGTLSLSPGDEATLSCRASQSVTSNYLAWYQQRPGQAPRLLISGASRRATAVPDRFSGSGSGTDFTLTISRLEPEDFAVYYCQQYGSTPITFGQGTRLEIK
notes: IgG
Kd [1]: 0.64 nM
Neut IC50 (ug/ml) subtype B [2]: 0.016 µg/mL
Neut IC50 (ug/ml) subtype A [3]: 0.011 µg/mL

B8: ADI-15583 (antibody, V domains shown)
VH: QVQLVQSGAEVKKPGESLKISCKTSGYKFTNYWIGWVRQMPGKGLEWMGIIYPGDSDARYSPSFQGQVTFSADKSISTAYLQWSSLKASDTAMYYCARQDNSGWADFFPFDYWGQGTLVTVSS
VL: ETTLTQSPGTLSLSPGERATLSCRASHSFSSSYLAWYQQKPGQAPRLLIYAASNRATGIPDRFSGSGSGTDFTLTISRLEPEDFAVYFCQQYDSSPWTFGQGTKVEIK
notes: IgG
Kd [1]: 0.351 nM
Neut IC50 (ug/ml) subtype B [2]: 0.377 µg/mL
Neut IC50 (ug/ml) subtype A [3]: 0.443 µg/mL

B9: ADI-15643 (antibody, V domains shown)
VH: B8 VH with K28R, Q82H, N101D
VL: B8 VL with T2I, T3V, S32T, V105L
notes: IgG
Kd [1]: 0.162 nM
Neut IC50 (ug/ml) subtype B [2]: 0.115 µg/mL
Neut IC50 (ug/ml) subtype A [3]: 0.039 µg/mL

B10: ADI-15587 (antibody, V domains shown)
VH: EVQLVESGGGVVRPGGSLRLSCAASGFKFDDYGMSWVRQAPGKGLEWVSAIIWNSGSTGYADSVKGRFIISRDNAKNSLYLQMNSLRAEDTALYYCARVGGITKWWYYGMDLWGQGTTVTVSS
VL: ETTLTQSPSFLSASVGDRVTITCRASQGLSNYLAWYQQKPGRAPKLLIYAASTLQSGVPSRFRGSGSGTEFTLTISSLQPEDLATYYCQHLNSYPLTFGGGTKVEIK
notes: IgG
Kd [1]: 2.42 nM
Neut IC50 (ug/ml) subtype B [2]: 0.13 µg/mL
Neut IC50 (ug/ml) subtype A [3]: > 10 µg/mL

B11: ADI-15638 (antibody, V domains shown)
VH: EVQLVESGGGLVKPGGSLRLSCAASGFTITSYGMNWVRQAPGKGLEWVSSISSSSSFIHYGDSVKGRFTISRDNAKNSLYLQMNSLRAGDTAVYYCVRDSGHQDYRGDYWGQGTLVTVSS
VL: QSVVTQPPSVSGAPGQRVSISCTGSSSNIGAGYDVHWYQQLPGTAPKLLIYTNNNRPSGVPDRFSGSKSGTSASLAINGLQAEDEADYYCQSYDRSLSGWVFGGGTKLTVL
notes: IgG
Kd [1]: 0.402 nM
Neut IC50 (ug/ml) subtype B [2]: > 10 µg/mL
Neut IC50 (ug/ml) subtype A [3]: 0.178 µg/mL

B12: ADI-15649 (antibody, V domains shown)
VH: EVQLVESGGGLVKPGGSLRLSCAAPGFTIRSYTMYWVRQAPGKGLEWVASISSSSSYIHYGDSVKGRFTIARDNAKNSLYLQMNSLRAEDTAVYYCVRDHCTGGSCYLNGMDVWGQGTTVTVSS
VL: B11 VL with S2P, V4L, S19T, S25T, T52G, N78T, R95S, W100S
notes: IgG
Kd [1]: 0.329 nM
Neut IC50 (ug/ml) subtype B [2]: 2.19 µg/mL
Neut IC50 (ug/ml) subtype A [3]: > 10 µg/mL

B13: ADI-15569 (antibody, V domains shown)
VH: EVQLVESGAEVKKPGASVKVSCKASGYTFANYGITWVRQAPGQGLEYMGWISAYNGNTNYAQKFQGRVTMTTDTSTSTAYMELRSLRSDDTAIYYCARDPGVTAAVLLDYWGQGALVTVSS
VL: DIVLTQSPLSLPVTLGQPASISCRSSQSLVFSDGNTYLSWFQQRPGQSPRRLLYKVSNRDSGVPDRFSGSGSGTDFTLTISRVEAEDVGVYYCLQGTPPYTFGQGTKVDIK
notes: IgG
Kd [1]: 0.25 nM
Neut IC50 (ug/ml) subtype B [2]: 0.035 µg/mL
Neut IC50 (ug/ml) subtype A [3]: 0.006 µg/mL

B14: ADI-15571 (antibody, V domains shown)
VH: QVQLVQSGAEVKKPGASVKVSCKASGYSFTDYYIHWVRQAPGQGLEWIGWINPNSGGTTFAQNFQGRVTMTRDTSISTAFLELSRLKSDDTAVYYCARDVLWLNGFWGLGTLVTVSS
VL: QSVVTQPPSVSAAPGQKVTISCSGSSSNIGNNYVSWYQQFRGTAPKVLIYENNKRTSGIPDRFSGSKSGTSATLGITGLQTGDEADYYCGTWDSSLSTGPYVVFGGGTKLTVL
notes: IgG
Kd [1]: 25.7 nM
Neut IC50 (ug/ml) subtype B [2]: 0.43 µg/mL
Neut IC50 (ug/ml) subtype A [3]: 0.541 µg/mL

B15: ADI-15586 (antibody, V domains shown)
VH: EVQLVESGGGVVQPGKSLRLSCAASGFIFSGYGMHWVRQAPGKGLEWVAFIWFDGSSTYYADSVKGRFTISKDDSKQTVYLQMNRLRAEDTAVYYCARDPLFLYNYNDEPFDYWGQGTLVTVSS
VL: SYELTQPPSASGSPGQSVTISCSGSSSNIGGNFVYWYQQLPGTAPKVLIYRNNQRPSGVPDRFSGSKSGTSASLAISGLRSDDEADYYCSVWDDSLNGRLFGGGTKLTVL
notes: IgG; also called Antibody Number 153
Kd [1]: 5.78 nM
Neut IC50 (ug/ml) subtype B [2]: 1.02 µg/mL
Neut IC50 (ug/ml) subtype A [3]: > 10 µg/mL

B16: ADI-15563 (antibody, V domains shown)
VH: EVQLVESGGGLVQPGRSLRLSCAASGFTFDDYAMHWVRQAPGKGLEWVSGISWNSGIVKYADSVKGRFTISRDNAKNSLYLQMNSLRTEDTALYYCVKDGYTSSWHSDYHYGLDVWGQGTTVTVSS
VL: DIVMTQSPATLSLSPGDRATLSCRASQNVISNLAWYQQKPGQAPRLLIYTVSTRATGIPARFSGSGSGTDFTLTISSLQSEDFAVYYCQQYNNWPLTFGGGTKVEIK
notes: IgG
Kd [1]: 2.2 nM
Neut IC50 (ug/ml) subtype B [2]: 0.047 µg/mL
Neut IC50 (ug/ml) subtype A [3]: 0.014 µg/mL

B17: ADI-15592 (antibody, V domains shown)
VH: EVQLVESGGALVKPGGSLRLSCVGTGLTFTTAYMSWARQAPGKGLEWVGRIKSKSDGGTTEYPTPVKGRFTISRDESKNTLYLQMNSLKIEDTAVYYCTTDRGITARPIFDSWGQGTLVTVSS
VL: QSVLTQPPSVSGALGRRVTISCTGSSSNIGAGYDVHWYRQLPGTAPKLLIYGNTKRPSGVPDRFSGSKYATSASLAITGLQAEDDADYYCQSYDGGLSGYVFGTGTQLTVL
notes: IgG; also called Antibody Number 159
Kd [1]: 48.2 nM
Neut IC50 (ug/ml) subtype B [2]: 20.9 µg/mL
Neut IC50 (ug/ml) subtype A [3]: 12.3 µg/mL

B18: ADI-15565 (antibody, V domains shown)
VH: QVQLVQSGAEVKKPGASVKVSCKASGYTFTNDINWVRQATGQGLEWMGWMNPNNGHTGYAQSFEGRVSMTRNSAINTAYLELSSLRFDDTAIYYCVYNFWSDSSVSWGQGTLVTVSS
VL: QSVVTQPPSVSGAPGQSVAISCTGSSSNIGPGYDVHWYQQLPGAAPKLLIYGDSNRPSGVPDRFSTSKSGTSVSLAITGLQAEDEADYYCQSYDSSLRGYVFGTGTKLTVL
notes: IgG
Kd [1]: 6.76 nM
Neut IC50 (ug/ml) subtype B [2]: 6.25 µg/mL
Neut IC50 (ug/ml) subtype A [3]: 21.3 µg/mL

B19: ADI-15591 (antibody, V domains shown)
VH: EVQLLESGGGLVKPGGSLRLSCAASGFTFSSYGMHWVRQAPGKGLEWVSSITAGSSYMDYADSVKGRFTVSRDNGKNSLYLQMNSLRAEDTAVYFCAREDYDSRVYYLKWFDPWGQGTLVTVSS
VL: B18 VL with V4L, S17R, A19T, P31T, A44S, D53N, T66G, V73A, L97R, R98S
notes: IgG
Kd [1]: 0.304 nM
Neut IC50 (ug/ml) subtype B [2]: 0.219 µg/mL
Neut IC50 (ug/ml) subtype A [3]: 0.086 µg/mL

B20: ADI-15575 (antibody, V domains shown)
VH: QVQLVQSGAEVKKPGASLMVSCSASGYIFNSDINWVRQAPGQGLEWMGWMNPKNGHTGYAQEFEGRVSMTRNSSKTIAYLQLSSLTYEDTAVYYCVYDFWSDDSVKWGRGTLVTVSS
VL: B18 VL with T23S, A44S, S54N, D62E, V73A, Y93F, L108V
notes: IgG
Kd [1]: 4.16 nM
Neut IC50 (ug/ml) subtype B [2]: 1.47 µg/mL
Neut IC50 (ug/ml) subtype A [3]: > 10 µg/mL
